Measured values as given in ChEMBL document CHEMBL3865823, “Ameliorative effects of amide derivatives of 1,3,4-thiadiazoles on scopolamine induced cognitive dysfunction” (Eur J Med Chem, 2016).

Experiments:
Format in all cases: tissue-based
[1] = compound: CC(=O)Oc1cccc(C(=O)Nc2nnc(-c3ccc(C)cc3)s2)c1; test: (§1) Inhibition of albino mouse brain AChE assessed as Km for substrate using acetylthiocholine iodide as substrate measured for 2 mins by Ellmans method
[2] = compound: CC(=O)Oc1cccc(C(=O)Nc2nnc(-c3ccccc3)s2)c1; test: as §1
[3] = compound: CC(=O)Oc1cccc(C(=O)Nc2nnc(-c3ccccc3Cl)s2)c1; test: as §1
[4] = compound: CC(=O)Oc1cccc(C(=O)Nc2nnc(Cc3ccccc3)s2)c1; test: as §1
[5] = compound: CC(CC(=O)Nc1nnc(-c2cccc(Cl)c2)s1)CC(C)(C)C; test: as §1
[6] = compound: CC(CC(=O)Nc1nnc(-c2ccccc2)s1)CC(C)(C)C; test: as §1
[7] = compound: CC(CC(=O)Nc1nnc(Cc2ccccc2)s1)CC(C)(C)C; test: as §1
[8] = compound: Cc1ccc(-c2nnc(NC(=O)CC(C)CC(C)(C)C)s2)cc1; test: as §1
[9] = compound: Cc1ccc(-c2nnc(NC(=O)c3cc(C(F)(F)F)cc(C(F)(F)F)c3)s2)cc1; test: as §1
[10] = compound: Cc1ccc(-c2nnc(NC(=O)c3cccc(CCl)c3)s2)cc1; test: as §1
[11] = compound: O=C(Nc1nnc(-c2ccccc2)s1)c1cccc(CCl)c1; test: as §1
[12] = compound: O=C(Nc1nnc(-c2ccccc2Cl)s1)c1cc(C(F)(F)F)cc(C(F)(F)F)c1; test: as §1
[13] = compound: O=C(Nc1nnc(-c2ccccc2Cl)s1)c1cccc(CCl)c1; test: as §1
[14] = compound: O=C(Nc1nnc(Cc2ccccc2)s1)c1cccc(CCl)c1; test: as §1

B1: Acetylcholinesterase (Mus musculus), P21836 (protein)
chain: MRPPWYPLHTPSLAFPLLFLLLSLLGGGARAEGREDPQLLVRVRGGQLRGIRLKAPGGPVSAFLGIPFAEPPVGSRRFMPPEPKRPWSGVLDATTFQNVCYQYVDTLYPGFEGTEMWNPNRELSEDCLYLNVWTPYPRPASPTPVLIWIYGGGFYSGAASLDVYDGRFLAQVEGAVLVSMNYRVGTFGFLALPGSREAPGNVGLLDQRLALQWVQENIAAFGGDPMSVTLFGESAGAASVGMHILSLPSRSLFHRAVLQSGTPNGPWATVSAGEARRRATLLARLVGCPPGGAGGNDTELIACLRTRPAQDLVDHEWHVLPQESIFRFSFVPVVDGDFLSDTPEALINTGDFQDLQVLVGVVKDEGSYFLVYGVPGFSKDNESLISRAQFLAGVRIGVPQASDLAAEAVVLHYTDWLHPEDPTHLRDAMSAVVGDHNVVCPVAQLAGRLAAQGARVYAYIFEHRASTLTWPLWMGVPHGYEIEFIFGLPLDPSLNYTTEERIFAQRLMKYWTNFARTGDPNDPRDSKSPQWPPYTTAAQQYVSLNLKPLEVRRGLRAQTCAFWNRFLPKLLSATDTLDEAERQWKAEFHRWSSYMVHWKNQFDHYSKQERCSDL
Km [1]: 8.01 µM
Km [2]: 1.37 µM
Km [3]: 16 µM
Km [4]: 4.47 µM
Km [5]: 17.7 µM
Km [6]: 9.09 µM
Km [7]: 24.9 µM
Km [8]: 7.86 µM
Km [9]: 4.89 µM
Km [10]: 1.9 µM
Km [11]: 16.4 µM
Km [12]: 2.35 µM
Km [13]: 15.3 µM
Km [14]: 12.9 µM
